Broadly, the EC50 is the concentration needed to bring the measured effect to its halfway point.

The target in experiment [1] is T1, human BCMA on cells (HEK293T/huBCMA; NCI-H929) (human, UniProt Q02223 1-184).
T1 construct: whole, on cells; also called human BCMA molecules on NCI-H929 cell line
T1 sequence (looked up): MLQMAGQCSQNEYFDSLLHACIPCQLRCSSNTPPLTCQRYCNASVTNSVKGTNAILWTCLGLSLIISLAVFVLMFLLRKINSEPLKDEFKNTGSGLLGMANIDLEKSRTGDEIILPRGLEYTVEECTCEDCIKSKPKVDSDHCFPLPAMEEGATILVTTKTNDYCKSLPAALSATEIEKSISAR
Description: FACS on NCI-H929 cell line [B]. As to the method: To study the binding activity of the BCMA arm of the BCMA×CD3 bispecific antibody to human BCMA, NCI-H929 cell line with highly expressed BCMA was used for binding experiments with human BCMA at cellular level. Briefly, NCI-H929 cell suspensions were collected. The cell density was adjusted to 1×10⁶ cells/mL, and the cells were inoculated in 96 well V-bottom plates at 100 μL cells/well (Corning, Cat#: 3894), followed by the addition of test antibodies at 100 μL/well, which is gradient diluted at 3 folds of the concentration with 2 folds of the final concentration. Cells were incubated at 4° C. for 2 hours in the dark. Afterwards, cells were washed twice with 100 μL/well of pre-cooled PBS, centrifuged at 500 g for 5 min at 4° C., and followed by discarding the supernatant. 100 μL/well of fluorescent secondary antibody (Alexa Fluor 488-conjugated AffiniPure Goat Anti-Human IgG, Fcγ Fragment Specific, Jackson, Cat#:109-545-06, 1:500 dilution) was added and incubated at 4° C. for 1 hour in the dark. Cells were washed twice with 100 μL/well of pre-cooled PBS, centrifuged at 500 g, 4° C. for 5 min, and followed by discarding the supernatant. Finally, the cells were resuspended with 200 μL/well of pre-cooled PBS, and the fluorescence luminescence signal values were read by BD FACS CANTOII.

Experiment [2] has as its target T2, cynomolgus monkey CD3 on cynomolgus monkey T cells (cynomolgus monkey, UniProt Q95LI5 22-198).
T2 construct: whole, on cells; CD3 complex on primary T cells
Description: FACS on cynomolgus monkey T cells [B]. As to the method: To study the in vitro binding activity of the CD3 arm of the BCMA×CD3 bispecific antibody, human and cynomolgus monkey T cells were used for antibody binding experiments at cellular level. Briefly, the density of human and cynomolgus monkey T cells was adjusted to 1×10⁶ cells/mL, respectively. Cells were inoculated at 100 μL cells/well in a 96 well V-bottom plate (Corning, Cat#: 3894), followed by the addition of test antibodies at 100 μL/well, which is gradient diluted at 3 folds of the concentration with 2 folds of the final concentration. Cells were incubated at 4° C. for 1 hour in the dark. Afterwards, cells were washed twice with 100 μL/well of pre-cooled PBS, centrifuged at 500 g in 4° C. for 5 min, and followed by discarding the supernatant. 100 μL/fluorescent secondary antibody (Alexa Fluor 488-conjugated AffiniPure Goat Anti- Human IgG, Fcγ Fragment Specific, Jackson, Cat#:109-545-06, 1: 500 dilution) was added and incubated for 30 min at 4° C. in the dark. Cells were washed twice with 100 μL/well of pre-cooled PBS, centrifuged at 500 g, 4° C. for 5 min, and followed by discarding the supernatant. Finally, the cells were resuspended with 200 μL/well of pre-cooled PBS, and the fluorescence luminescence signal values were read by BD FACS CANTOII.

In experiment [3] the target is T1, human BCMA on cells (HEK293T/huBCMA; …). Description: FACS on HEK293T cell strain overexpressing human BCMA [C]. An excerpt: To study the in vitro binding activity of the BCMA arm of the BCMA×CD3 bispecific antibody, HEK293T cell strain overexpressing human BCMA (HEK293T/huBCMA) and HEK293T cell strain overexpressing cynomolgus monkey BCMA (HEK293T/cynoBCMA) were used for antibody binding experiments at cellular level. Briefly, HEK293T/huBCMA cells and HEK293T/cynoBCMA cells were digested and resuspended with DMEM complete medium. The cell density of the two was adjusted to 1×10⁶ cells/mL, respectively. Cells were inoculated at 100 μL cells/well in a 96 well V-bottom plate (Corning, Cat#: 3894), followed by the addition of test antibodies at 100 μL/well, which is gradient diluted at 3 folds of the concentration with 2 folds of the final concentration. Cells were incubated at 4° C. for 1 hour in the dark. Afterwards, the cells were washed twice with 100 μL/well of pre-cooled PBS, centrifuged at 500 g for 5 min at 4° C., and followed by discarding the supernatant. 100 μL/well of fluorescent secondary antibody (Alexa Fluor 488-conjugated AffiniPure Goat Anti-Human IgG, Fcγ Fragment Specific, Jackson, Cat#: 109-545-06, 1:500 dilution) was added and incubated for 30 min at 4° C. in the dark. […] Finally, the cells were resuspended with 200 μL/well of pre-cooled PBS, and the fluorescence luminescence signal values were read by BD FACS CANTOII. […]

Experiment [4] has as its target T3, cynomolgus monkey BCMA on cells (HEK293T/cynoBCMA) (cynomolgus monkey, UniProt A0A2K5UD97 1-183).
T3 construct: whole, on cells
Description: FACS on HEK293T cell strain overexpressing cynomolgus monkey BCMA [B), (C].

T3 sequence (A0A2K5UD97 entry or part of it): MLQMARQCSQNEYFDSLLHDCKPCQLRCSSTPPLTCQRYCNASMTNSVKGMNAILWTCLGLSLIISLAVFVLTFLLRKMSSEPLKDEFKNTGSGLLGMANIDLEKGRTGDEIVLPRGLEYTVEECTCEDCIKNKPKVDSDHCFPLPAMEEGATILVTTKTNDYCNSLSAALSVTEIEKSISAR
T2 sequence (Q95LI5 22-198): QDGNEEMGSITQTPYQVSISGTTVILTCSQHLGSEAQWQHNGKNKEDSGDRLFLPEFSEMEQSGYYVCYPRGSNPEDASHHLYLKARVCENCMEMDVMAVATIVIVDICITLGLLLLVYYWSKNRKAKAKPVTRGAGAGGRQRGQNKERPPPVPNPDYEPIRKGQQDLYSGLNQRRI

B1: positive control 2, PR002199 (anti-BCMA (TNB308902) x CD3 (TNB_F2B) bispecific antibody) (bispecific antibody, human IgG1, kappa, L234A L235A)
heavy 1: EVQLVESGGGLVQPGRSLRLSCAASGFTFDDYAMHWVRQAPGKGLEWVSGISWNSGSIGYADSVKGRFTISRDNAKNSLYLQMNSLRAEDTALYYCAKDSRGYGDYRLGGAYWGQGTLVTVSSASTKGPSVFPLAPSSKSTSGGTAALGCLVKDYFPEPVTVSWNSGALTSGVHTFPAVLQSSGLYSLSSVVTVPSSSLGTQTYICNVNHKPSNTKVDKKVEPKSCDKTHTCPPCPAPEAAGGPSVFLFPPKPKDTLMISRTPEVTCVVVDVSHEDPEVKFNWYVDGVEVHNAKTKPREEQYNSTYRVVSVLTVLHQDWLNGKEYKCKVSNKALGAPIEKTISKAKGQPREPQVYTLPPCREEMTKNQVSLWCLVKGFYPSDIAVEWESNGQPENNYKTTPPVLDSDGSFFLYSKLTVDKSRWQQGNVFSCSVMHEALHNHYTQKSLSLSPGK
light: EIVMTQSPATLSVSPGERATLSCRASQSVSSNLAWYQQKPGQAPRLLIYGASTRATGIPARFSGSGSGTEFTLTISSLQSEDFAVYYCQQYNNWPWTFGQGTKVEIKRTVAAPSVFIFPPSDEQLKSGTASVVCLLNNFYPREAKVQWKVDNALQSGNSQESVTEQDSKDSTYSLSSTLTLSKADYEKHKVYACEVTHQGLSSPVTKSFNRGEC
heavy 2: EVQLLESGGGLVQPGGSLRLSCAASGFTVSSYGMSWVRQAPGKGPEWVSGIRGSDGSTYYADSVKGRFTISRDNSKNTLYLQMNSLRAEDTAVYYCAKQGENDGPFDHRGQGTLVTVSSGGGGSEVQLLESGGGLVQPGGSLRLSCAASGFTVSSYGMSWVRQAPGKGPEWVSGIRGSDGSTYYADSVKGRFTISRDNSKNTLYLQMNSLRAEDTAVYYCAKQGENDGPFDHRGQGTLVTVSSASEPKSSDKTHTCPPCPAPEAAGGPSVFLFPPKPKDTLMISRTPEVTCVVVDVSHEDPEVKFNWYVDGVEVHNAKTKPREEQYNSTYRVVSVLTVLHQDWLNGKEYKCKVSNKALGAPIEKTISKAKGQPREPQVCTLPPSREEMTKNQVSLSCAVKGFYPSDIAVEWESNGQPENNYKTTPPVLDSDGSFFLVSKLTVDKSRWQQGNVFSCSVMHEALHNHYTQKSLSLSPGK
notes: Three chains: HC1 (anti-CD3 heavy), LC (anti-CD3 kappa light), HC2 (two tandem anti-BCMA VH, then Fc)
As for B1, the EC50 in experiment [1] is 8.7 nM; in experiment [3], 0.602 nM. Further, the binding result is given as “no binding (tested: about 300 nM)” in experiment [2] and “no binding (tested: 100 nM)” in experiment [4].

The record behind these values is patent US20220340673A1 (HARBOUR BIOMED SUZHOU, published 2022).
